Reference: PMC6657678, “The Bub1-TPR Domain Interacts Directly with Mad3 to Generate Robust Spindle Checkpoint Arrest” (Current Biology, 2019)

Target: T1, His-Bub1TPR (fission yeast Bub1 residues 22-184) (S. pombe, UniProt O94751 22-184)
T1 construct: Bub1, S. pombe, TPR domain, residues 22-184; Cloned into pET-DUET; also called recombinant Bub1-TPR; source: E. coli ArcticExpress, purified (cobalt IMAC, dialysis); not shown: His, N-terminal, kept
T1 sequence (looked up): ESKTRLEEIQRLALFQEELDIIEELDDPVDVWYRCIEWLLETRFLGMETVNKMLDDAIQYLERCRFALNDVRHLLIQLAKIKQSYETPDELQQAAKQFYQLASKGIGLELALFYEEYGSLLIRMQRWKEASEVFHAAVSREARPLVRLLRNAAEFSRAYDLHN
Test: SEC; Superdex 200 increase 10/300 in 50 mM Tris pH 8.0, 150 mM NaCl, 5% glycerol, 2 mM DTT; proteins alone and mixed, fractions on SDS-PAGE
Settings: both partners purified

binding result: binds
B1: His-GFP-Mad3TPR (fission yeast Mad3 residues 44-201) (domain or fragment, S. pombe, UniProt O59767 44-201, looked up)
chain: TEKEVAGLQKERMGHERKIETSESLDDPLQVWIDYIKWTLDNFPQGETKTSGLVTLLERCTREFVRNPLYKDDVRYLRIWMQYVNYIDEPVELFSFLAHHHIGQESSIFYEEYANYFESRGLFQKADEVYQKGKRMKAKPFLRFQQKYQQFTHRWLEF
notes: Mad3, S. pombe, TPR domain, residues 44-201; Cloned into the 9GFP (N-terminal His-GFP tag) LIC vector; source: E. coli ArcticExpress, purified (cobalt IMAC, dialysis); not shown: His, N-terminal, kept; GFP, N-terminal, kept
